# Experimental data as given in paper PMC10439915, “Development of an interfering peptide M1-20 with potent anti-cancer effects by targeting FOXM1” (Cell Death & Disease, 2023).
# Non-standard residues stand in square brackets, D forms with d. No end group written: not given here.
# T1: FOXM1_1-138 (Homo sapiens, UniProt Q08050)
# T1 construct: The cDNA of FOXM1(1-138aa) was PCR amplified from pCMV-FOXM1 plasmid; EGFP (C); His (pET-32a vector; Ni-Sepharose purification); made in house; host or cells: E. coli Rosetta/DE3
# T1 sequence (Q08050 1-138 isoform Q08050-2): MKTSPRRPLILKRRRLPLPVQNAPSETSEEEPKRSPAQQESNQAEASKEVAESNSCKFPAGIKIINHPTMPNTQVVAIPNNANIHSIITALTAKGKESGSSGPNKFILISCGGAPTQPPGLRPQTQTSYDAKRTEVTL
# T2: endogenous FOXM1 (Homo sapiens, UniProt Q08050)
# T2 construct: endogenous in cells; host or cells: MDA-MB-231 cell lysates
# T2 sequence (Q08050 1-763): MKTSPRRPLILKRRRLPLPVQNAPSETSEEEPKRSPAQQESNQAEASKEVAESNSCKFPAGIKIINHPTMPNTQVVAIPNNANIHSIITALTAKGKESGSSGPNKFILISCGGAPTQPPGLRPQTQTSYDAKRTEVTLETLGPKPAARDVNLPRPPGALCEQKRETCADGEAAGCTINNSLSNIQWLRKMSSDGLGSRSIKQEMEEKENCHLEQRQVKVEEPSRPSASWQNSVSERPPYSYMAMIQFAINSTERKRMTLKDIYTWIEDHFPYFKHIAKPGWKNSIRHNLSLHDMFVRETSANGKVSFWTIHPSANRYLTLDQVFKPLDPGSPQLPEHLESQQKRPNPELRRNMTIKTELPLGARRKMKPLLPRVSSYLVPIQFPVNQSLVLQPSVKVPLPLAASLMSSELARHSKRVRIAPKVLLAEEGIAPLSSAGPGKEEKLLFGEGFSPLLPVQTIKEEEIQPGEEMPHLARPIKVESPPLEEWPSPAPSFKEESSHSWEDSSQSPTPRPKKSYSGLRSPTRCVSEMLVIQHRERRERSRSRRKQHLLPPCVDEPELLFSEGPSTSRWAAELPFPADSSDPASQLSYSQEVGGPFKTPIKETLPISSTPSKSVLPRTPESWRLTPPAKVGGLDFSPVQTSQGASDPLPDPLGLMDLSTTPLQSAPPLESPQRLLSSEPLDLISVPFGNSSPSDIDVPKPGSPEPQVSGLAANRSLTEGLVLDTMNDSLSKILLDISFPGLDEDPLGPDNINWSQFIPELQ
# T3: GFP-labeled FOXM1_(1-138) (human, UniProt Q08050-3 1-138)
# T3 construct: The fluorescent partner of the MST; Details are in the supplemental materials and methods
# T3 sequence (looked up): T1 sequence (Q08050 1-138 isoform Q08050-2)
# T4: His-FOXM1 (UniProt Q08050-2 1-748)
# T4 sequence: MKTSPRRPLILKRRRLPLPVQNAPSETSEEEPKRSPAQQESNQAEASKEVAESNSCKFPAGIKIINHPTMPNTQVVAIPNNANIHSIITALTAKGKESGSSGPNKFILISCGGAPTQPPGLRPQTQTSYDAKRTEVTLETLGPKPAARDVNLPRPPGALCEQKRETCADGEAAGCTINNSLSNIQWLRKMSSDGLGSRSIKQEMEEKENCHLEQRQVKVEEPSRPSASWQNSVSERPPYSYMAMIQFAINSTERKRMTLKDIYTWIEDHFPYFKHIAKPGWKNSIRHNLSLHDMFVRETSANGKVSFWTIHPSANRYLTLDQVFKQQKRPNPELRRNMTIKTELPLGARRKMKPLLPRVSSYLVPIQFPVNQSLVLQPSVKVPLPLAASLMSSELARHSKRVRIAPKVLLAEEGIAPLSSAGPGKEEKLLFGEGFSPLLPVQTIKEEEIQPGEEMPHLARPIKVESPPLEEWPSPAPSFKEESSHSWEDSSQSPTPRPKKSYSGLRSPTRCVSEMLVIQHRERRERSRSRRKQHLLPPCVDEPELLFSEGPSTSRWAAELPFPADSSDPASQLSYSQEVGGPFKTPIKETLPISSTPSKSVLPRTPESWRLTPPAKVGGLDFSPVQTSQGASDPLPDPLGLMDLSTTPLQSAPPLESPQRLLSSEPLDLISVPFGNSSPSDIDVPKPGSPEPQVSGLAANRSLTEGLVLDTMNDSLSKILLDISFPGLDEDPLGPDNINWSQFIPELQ
# B1: FAM-labeled FOXM1 EMSA probe (dsDNA)
# DNA 1: TTTGTTTATTTGTTTGTTTATTTG
# DNA 2: CAAATAAACAAACAAATAAACAAA
# Columns and labels:
# FOXM1_1-138 [1] = target: T1, FOXM1_1-138; experiment: Microscale thermophoresis binding of peptide to GFP-labeled FOXM1_1-138; conditions: MST, Monolith NT.115, peptide 0.030 to 1000 μM in PBS with 0.05% Tween-20, 25 °C, mean of three independent measurements
# Experimental: Measurements were performed by Monolith NT.115 instrument (NanoTemper). The data were analyzed by MO. Affinity Analysis v2.3 NT software (NanoTemper) to determine interaction parameters. Details were described in the supplemental materials and methods.
# Fig. 2 The screening of the FOXM1-interacting peptide M1-20. A The diagram of peptide array (P1-P9) in which peptides (20-mer) covering FOXM1_689-748 with a shifting window of five residues were conjugated to the cell-penetrating peptide TAT and produced by solid-phase peptide synthesis. […] Biotin and FOXM1 proteins in samples were detected by Western Blotting with certain antibodies. […] The absorbance at 450 nm and the relative cell viability in each well was calculated. […] GST-tag and Biotin-tag were detected by Western Blotting with certain antibodies. […] E The curve represented the quantification of binding affinity between GFP-labeled FOXM1_1-138 and P5 or P5mut by Microscale Thermophoresis (MST, Monolith NT.115, NanoTemper). Data points indicated the fraction of FOXM1_1-138-bound peptide (ΔNormal/Amplitude) at different concentrations, and curves indicated the calculated fits. […] F The biotin signals indicated the peptide stability of P5 and M1-20 in HEK293T cell lysates analyzed by Western Blotting. The levels of peptide were quantified by Image J software and graphed with GraphPad Prism 9 (n = 3). […]
# FOXM1_1-138 [2] = target: T1, FOXM1_1-138; experiment: Biotin-peptide pull-down of recombinant FOXM1_1-138; assay type: binding; conditions: biotin-labeled peptide (10 μg), recombinant protein (50 μg), Streptavidin Agarose Resin
# Experimental: (§1) Fig. 2 The screening of the FOXM1-interacting peptide M1-20. A The diagram of peptide array (P1-P9) in which peptides (20-mer) covering FOXM1_689-748 with a shifting window of five residues were conjugated to the cell-penetrating peptide TAT and produced by solid-phase peptide synthesis. The P1-P9 peptides were biotin-labeled respectively and added in MDA-MB-231 cell lysates (500 μg) which were incubated with Streptavidin Agarose Resin to pull down biotin-peptide/protein complexes. Biotin and FOXM1 proteins in samples were detected by Western Blotting with certain antibodies. 10% of cell lysates (50 μg) were used as input controls. […] The absorbance at 450 nm and the relative cell viability in each well was calculated. […] GST-tag and Biotin-tag were detected by Western Blotting with certain antibodies. […] E The curve represented the quantification of binding affinity between GFP-labeled FOXM1_1-138 and P5 or P5mut by Microscale Thermophoresis (MST, Monolith NT.115, NanoTemper). Data points indicated the fraction of FOXM1_1-138-bound peptide (ΔNormal/Amplitude) at different concentrations, and curves indicated the calculated fits. […] F The biotin signals indicated the peptide stability of P5 and M1-20 in HEK293T cell lysates analyzed by Western Blotting. The levels of peptide were quantified by Image J software and graphed with GraphPad Prism 9 (n = 3). […]
# MDA-MB-231 cells = experiment: CCK-8 cell viability; assay type: cell-based, human; conditions: 0, 10, 20, 40, 80, 160 µM, 36 h, n = 3
# Experimental: as §1
# endogenous FOXM1 = target: T2, endogenous FOXM1; experiment: Biotin-peptide pull-down of endogenous FOXM1 from MDA-MB-231 cell lysates; assay type: binding; conditions: biotin-labeled peptide, MDA-MB-231 cell lysates (500 μg), Streptavidin Agarose Resin, Western Blotting
# Experimental: as §1
# [3] = target: T3, GFP-labeled FOXM1_(1-138); experiment: MST; GFP-labeled FOXM1(1-138) with peptide at different concentrations; Monolith NT.115 (NanoTemper), MO.Affinity Analysis v2.3; three independent measurements; conditions: both partners purified
# His-FOXM1 = target: T4, His-FOXM1; experiment: EMSA; plus M1-20 peptide (5 and 10 uM in legend; 0.5, 1 and 2 uM in Suppl. Methods); DNA binding not disrupted; 20 mM Tris-Cl pH 7.6, 50 mM KCl, 10% glycerol, 0.5 mM EDTA, 0.2 mM DTT, 30 min on ice; 4% native PAGE in 0.5x TBE; conditions: protein: recombinant; tags: His; label: 5'-FAM on forward strand (hot); blunt
molecule,measurement,setting,value
"P5mut: P5 with three residues mutated (L721A, I723A, S724A) (LDTMNDSLSKILADAAFPGL; also: conjugated to TAT cell-penetrating sequence (as parent P5))","KD, binding affinity to FOXM1_1-138",FOXM1_1-138 [1],unmeasurable
"P5: the sequence 709-728aa of FOXM1, 20-mer conjugated with TAT cell-penetrating sequence; natural parent peptide of M1-20",binding to recombinant FOXM1_1-138 (pull-down),FOXM1_1-138 [2],bind to recombinant GST-FOXM1_1-138 protein
same,inhibition of MDA-MB-231 cells in the P1-P9 library screen,MDA-MB-231 cells,significantly inhibited MDA-MB-231 breast cancer cells in a dose-dependent manner
same,interaction with endogenous FOXM1 (pull-down),endogenous FOXM1,interacted with endogenous FOXM1 with variable affinities
[dL]G[dP][dF][dS][dI][dD][dL][dL][dI][dK][dS][dL][dS][dD][dN][dM][dT][dD][dL] [M1-20],Kd,[3],5.66 µM
[dL]G[dP][dF][dA][dA][dD][dA][dL][dI][dK][dS][dL][dS][dD][dN][dM][dT][dD][dL] [M1-20mut],Kd,[3],386 µM
LDTMNDSLSKILLDISFPGL (also: conjugated to TAT cell-penetrating sequence) [P5],Kd,[3],43.1 µM
B1,binding result,His-FOXM1,binds
